Test results reported in paper PMC4168798 (ACS Chemical Biology, 2014).

T1: Bfl-1 (c-myc-tagged, without the C-terminal trans-membrane region) (human)
T1 sequence (Q16548 whole entry, looked up): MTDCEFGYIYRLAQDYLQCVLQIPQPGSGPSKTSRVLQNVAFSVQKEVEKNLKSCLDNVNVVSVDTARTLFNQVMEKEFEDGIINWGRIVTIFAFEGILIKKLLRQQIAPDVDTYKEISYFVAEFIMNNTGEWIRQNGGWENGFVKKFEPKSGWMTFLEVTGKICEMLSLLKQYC

T2: Bcl-w (c-myc-tagged, without the C-terminal trans-membrane region) (human)
T2 chain: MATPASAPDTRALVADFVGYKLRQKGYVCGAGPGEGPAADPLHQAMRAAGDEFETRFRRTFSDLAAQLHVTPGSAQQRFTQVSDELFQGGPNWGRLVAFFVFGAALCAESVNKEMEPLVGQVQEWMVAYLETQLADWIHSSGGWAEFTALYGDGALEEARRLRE

B1: Kaposi sarcoma herpesvirus Bcl-2 (domain or fragment)
chain: MDEDVLPGEVLAIEGIFMACGLNEPEYLYHPLLSPIKLYITGLMRDKESLFEAMLANVRFHSTTGINQLGLSMLQVSGDGNMNWGRALAILTFGSFVAQKLSNEPHLRDFALAVLPVYAYEAIGPQWFRARGGWRGLKAYCTQVLTRRRGRR

Tests used:
Assay in all cases: fluorescence polarisation
[1] = biological target: B1
[2] = biological target: Bcl-2 (c-myc-tagged, without the C-terminal trans-membrane region) (human)
[3] = biological target: T1, Bfl-1 (c-myc-tagged, without the …)
[4] = biological target: Mcl-1 (c-myc-tagged, without the N-terminal domain and the C-terminal trans-membrane region) (human)
[5] = biological target: T2, Bcl-w (c-myc-tagged, without the …)
[6] = biological target: Bcl-xL (c-myc-tagged, without the C-terminal trans-membrane region) (human)
[7] = biological target: Bim_A2eT_I3dL, N-terminal fluorescein (N-terminal 5/6-fluorescein amidite; C-terminal amidation)

Chain of Bcl-xL (c-myc-tagged, without the C-terminal trans-membrane region) (human) (Q07817 whole entry): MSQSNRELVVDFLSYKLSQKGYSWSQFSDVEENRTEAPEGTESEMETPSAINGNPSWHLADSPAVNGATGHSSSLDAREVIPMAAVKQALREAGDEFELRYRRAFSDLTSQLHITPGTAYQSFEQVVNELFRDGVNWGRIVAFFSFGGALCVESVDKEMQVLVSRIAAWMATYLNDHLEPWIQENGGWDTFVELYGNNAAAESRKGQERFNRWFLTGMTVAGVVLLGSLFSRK
Chain of Mcl-1 (c-myc-tagged, without the N-terminal domain and the C-terminal trans-membrane region) (human) (Q07820 whole entry, the tested form may be a part): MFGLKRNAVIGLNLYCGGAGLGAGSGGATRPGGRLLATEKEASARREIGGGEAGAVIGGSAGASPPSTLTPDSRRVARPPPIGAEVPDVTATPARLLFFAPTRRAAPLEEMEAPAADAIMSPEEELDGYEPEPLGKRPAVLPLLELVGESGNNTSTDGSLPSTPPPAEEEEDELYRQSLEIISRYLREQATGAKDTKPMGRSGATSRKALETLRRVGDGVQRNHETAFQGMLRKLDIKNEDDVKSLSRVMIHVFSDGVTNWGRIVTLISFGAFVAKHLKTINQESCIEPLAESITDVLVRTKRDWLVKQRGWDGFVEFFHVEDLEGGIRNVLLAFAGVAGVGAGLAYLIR

Binder | Kd [1] | Kd [2] | Kd [3] | Kd [4] | Kd [5] | Kd [6] | Kd [7]
{5/6‑fluorescein amidite}-RPEIWLGQSLQRLGDEINAYYAR-NH2 (designed binder) [B3, N-terminal fluorescein] | 1.43 nM | 35 nM | 26 nM | < 1 nM | 16 nM | 4.2 nM | 
{5/6‑fluorescein amidite}-RPEIWLTQSLQRLGDEINAYYAR-NH2 (designed binder) [MS2, N-terminal fluorescein] | < 1 nM |  |  |  |  |  | 
{5/6‑fluorescein amidite}-RPEIWLTQHLQRLGDEINAYYAR-NH2 (designed binder) [MS3, N-terminal fluorescein] |  | > 3000 nM | 790 nM |  | 340 nM |  | 
{5/6‑fluorescein amidite}-RPEIWMGQGLRRLGDEINAYYAR-NH2 (designed binder) [A12, N-terminal fluorescein] | 4 nM | 42 nM | 22 nM | 2.4 nM | 210 nM | 9.8 nM | 
{5/6‑fluorescein amidite}-RPEIWMTQGLRRLGDEINAYYAR-NH2 (designed binder) [MS1, N-terminal fluorescein] | 2.9 nM |  |  |  |  |  | 
B1 |  |  |  |  |  |  | 1 nM
